Substitutions are numbered along the chain they refer to. Names may count otherwise. Each block holds one binder with its values, some of them ahead of it.
Tests used:
human insulin receptor = biological target: T1, human insulin receptor (human, UniProt P06213 28-1382); test: competition with biotinylated RHI on IM-9 cells, flow cytometry, 4 C
T1 construct: whole, on cells; Endogenous receptor on IM-9 cells; also called IR
Experimental: 40 μL of an IM-9 cell suspension (8×10⁶ cells/mL) was then added to each well by multichannel pipette, mixed again gently and incubated on ice for 30 min to allow competitive binding on the insulin receptor on IM-9 cells. Cells were then washed twice with 275 μL of ice-cold FACS wash buffer (HBSS/2 mM EDTA/0.1% Na-azide+0.5% horse serum) by centrifuging the V-bottom plate at 3000 rpm for 3 min and aspirating the supernatant. Cells were then resuspended in 40 μL of FACS staining medium containing 1:100 diluted Streptavidin-PE (Life Technologies) for 20 min on ice. Cells were then washed once with 275 μL of ice-cold FACS buffer and finally fixed with 3% paraformaldehyde for 10 min at room temp. Cells were then washed once with 275 μL of ice-cold FACS buffer and resuspended in 250 μl of FACS buffer for analysis.
The V-bottom plates containing cells were then analyzed on a Guava 8-HT flow cytometer (Millipore). Biotinylated-RHI binding to insulin receptor was quantitated by the median fluorescence intensity (MFI) of the cells on the FACS FL-2 channel for each concentration of the test compound. Control wells were labeled only with biotinylated-RHI and were used to calculate the percent (%) inhibition resulting from each test compound concentration. The % inhibition by test compounds of biotinylated-RHI binding on IM-9 cells was plotted against log concentrations of the test compound, and the resulting IC50 values were calculated using GraphPad Prism (GraphPad Software, La Jolla, CA) for the test compounds. Lower IC50 values of the test compound therefore indicate greater levels of biotinylated-RHI inhibition at lower concentrations indicating stronger binding of the insulin-Fc fusion protein to the insulin receptor. A control compound, such as unlabeled recombinant human insulin (RHI) was also used as an internal standard to generate an RHI IC50 against which a given compound IC50 could be ratioed (IC50(compound)/IC50(RHI)). Lower IC50 ratios have more similar binding to RHI (stronger binding to insulin receptor), while higher IC50 ratios have weaker binding to the insulin receptor relative to RHI.

[1] = biological target: T2, biotinylated recombinant human Fc(gamma) receptor I (human, UniProt P12314 16-288, biotinylated (site not stated)); test: ELISA, fusion protein coated, biotinylated rhFc(gamma)RI at 3000 ng/mL, pH 7.4
T2 construct: Bought reagent, used as surrogate for canine/feline Fc(gamma)RI; also called rhFc(gamma) receptor I; Fc(gamma)RI
Experimental: (§1) The binding of insulin-Fc fusion proteins to the Fc(gamma) receptor I at pH 7.4 was conducted using an ELISA assay as follows. Since neither canine nor feline Fc(gamma) receptor I was not commercially available, human Fc(gamma) receptor I (i.e., rhFc(gamma) receptor I) was used as a surrogate mammalian receptor. Insulin-Fc compounds were diluted to 10 μg/mL in sodium bicarbonate buffer at pH 9.6 and coated on Maxisorp (Nunc) microtiter plates overnight at 4° C., after which the microplate strips were washed 5 times with PBST (PBS/0.05% Tween-20) buffer and blocked with Superblock blocking reagent (ThermoFisher). Serial dilutions of biotinylated rhFc(gamma) receptor I (recombinant human Fc(gamma)R-I; R&D Systems) were prepared in PBST/10% Superblock buffer from 6000 ng/mL to 8.2 ng/mL and loaded at 100 μL/well onto the microplate strips coated with insulin-Fc fusion protein. The microtiter plate was incubated for 1 hour at room temperature after which the microplate strips were washed 5 times with PBST and then loaded with 100 μL/well of streptavidin-HRP diluted 1:10000 in PBST/10% Superblock buffer. After incubating for 45 min, the microplate strips were washed again 5 times with PBST. TMB was added to reveal the bound Fc(gamma) receptor I proteins and stopped with ELISA stop reagent (Boston Bioproducts). The plate was read in an ELISA plate reader at 450 nm, and the OD values (proportional to the binding of rhFc(gamma) receptor I to insulin-Fc protein) were plotted against log concentrations of rhFc(gamma) receptor I added to each well to generate binding curves using GraphPad Prism software.
Finally, select compounds were tested for their likelihood to interact with the immune system by measuring their Fc(gamma) receptor binding activity according to the procedure of Example 8. Table 19 compares the Fc(gamma) receptor I binding of these insulin-Fc fusion proteins with the Fc(gamma) receptor binding of the insulin-Fc fusion protein of SEQ ID NO: 52.

biotinylated canine FcRn = biotinylated canine FcRn (canine, UniProt A0A8I3PFR8 25-347, biotinylated (site not stated)); test: ELISA pH 5.5, fusion protein coated, biotinylated canine FcRn titrated
Experimental: Insulin-Fc fusion proteins comprising Fc fragments of canine or feline origin were diluted to 10 μg/ml in sodium bicarbonate pH 9.6 buffer and coated in duplicate on Maxisorb ELISA plate strips for 1-2 hours at RT. The strips were then washed 4 times with PBST (PBS/0.1% Tween-20) buffer and blocked with Superblock blocking reagent (ThermoFisher). Strips for FcRn binding were then washed again twice with pH 5.5 MES/NaCl/Tween (50 mM MES/l50 mM NaCl/0.1% Tween-20) buffer before addition of the FcRn reagent (biotinylated canine FcRn; Immunitrack). […] Serial dilutions (1:3× dilutions) of biotinylated FcRn reagent were prepared in pH 5.5 MES/NaCl/Tween/10% Superblock buffer at concentrations from 1000 ng/ml to 0.45 ng/ml and loaded at 100 μL/well using a multichannel pipettor onto the strips coated with the insulin-Fc fusion protein compounds. The assay plate was then incubated for 1 hour at room temperature. FcRn binding strips were washed 4 times with pH 5.5 MES/NaCl/Tween buffer and then loaded with 100 μl/well […] diluted 1:10000 in pH 5.5 MES/NaCl/10% Superblock buffer. After incubating for 45 minutes, strips were washed again 4 times with pH 5.5 MES/NaCl/Tween buffer. TMB was finally added to reveal the bound biotinylated-canine FcRn reagent, and the color development was stopped with the ELISA stop reagent. The plate was read in an ELISA plate reader at a wavelength of 450 nm. The OD values (proportional to the binding of canine-FcRn to the insulin-Fc fusion protein test compounds) were plotted against log concentrations of FcRn added to each well to generate binding curves using GraphPad Prism software. EC50 values for each binding curve were calculated to compare between different compounds.

[2] = biological target: T2, biotinylated recombinant human …; test: ELISA, fusion protein coated, biotinylated rhFc(gamma)RI in solution, pH 7.4
Experimental: as §1
Low Fc(gamma) receptor binding is most likely to correlate with minimum immunogenicity.

T1 sequence (P06213 28-1382): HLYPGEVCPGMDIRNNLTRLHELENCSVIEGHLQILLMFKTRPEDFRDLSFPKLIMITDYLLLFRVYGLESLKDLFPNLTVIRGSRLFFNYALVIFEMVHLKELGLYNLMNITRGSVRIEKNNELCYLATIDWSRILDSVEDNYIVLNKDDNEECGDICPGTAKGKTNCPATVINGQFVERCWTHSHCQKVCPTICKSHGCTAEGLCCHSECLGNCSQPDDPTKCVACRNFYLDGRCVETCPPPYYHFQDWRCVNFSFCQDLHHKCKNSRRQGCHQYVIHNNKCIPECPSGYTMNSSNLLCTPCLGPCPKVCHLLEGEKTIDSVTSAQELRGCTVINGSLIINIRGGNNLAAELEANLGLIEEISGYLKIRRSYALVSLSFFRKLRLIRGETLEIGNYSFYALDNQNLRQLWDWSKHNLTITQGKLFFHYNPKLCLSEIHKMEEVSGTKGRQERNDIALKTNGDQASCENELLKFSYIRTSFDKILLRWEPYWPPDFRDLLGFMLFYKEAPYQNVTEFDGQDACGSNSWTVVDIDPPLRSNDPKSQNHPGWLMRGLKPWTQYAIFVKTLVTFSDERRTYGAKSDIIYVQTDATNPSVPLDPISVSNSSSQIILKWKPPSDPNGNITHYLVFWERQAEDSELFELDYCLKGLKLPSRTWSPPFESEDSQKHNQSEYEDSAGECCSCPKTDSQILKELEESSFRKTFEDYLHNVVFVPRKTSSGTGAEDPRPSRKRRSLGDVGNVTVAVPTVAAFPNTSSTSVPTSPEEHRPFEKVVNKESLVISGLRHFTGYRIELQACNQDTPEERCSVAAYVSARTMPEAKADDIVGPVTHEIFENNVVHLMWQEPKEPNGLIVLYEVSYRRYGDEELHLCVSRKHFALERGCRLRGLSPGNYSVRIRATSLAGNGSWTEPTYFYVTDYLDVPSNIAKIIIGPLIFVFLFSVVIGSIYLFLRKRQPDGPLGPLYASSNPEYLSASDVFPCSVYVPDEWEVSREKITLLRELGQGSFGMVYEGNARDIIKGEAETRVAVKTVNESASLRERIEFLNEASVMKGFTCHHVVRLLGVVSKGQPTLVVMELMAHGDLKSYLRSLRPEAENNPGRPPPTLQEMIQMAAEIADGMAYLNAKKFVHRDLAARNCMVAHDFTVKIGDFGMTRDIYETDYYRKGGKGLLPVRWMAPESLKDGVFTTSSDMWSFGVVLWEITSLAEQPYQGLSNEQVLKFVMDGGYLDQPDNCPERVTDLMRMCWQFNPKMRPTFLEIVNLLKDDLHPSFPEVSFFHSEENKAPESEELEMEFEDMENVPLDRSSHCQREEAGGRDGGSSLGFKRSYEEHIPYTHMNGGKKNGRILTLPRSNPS
T2 sequence (P12314 16-288 limits assumed): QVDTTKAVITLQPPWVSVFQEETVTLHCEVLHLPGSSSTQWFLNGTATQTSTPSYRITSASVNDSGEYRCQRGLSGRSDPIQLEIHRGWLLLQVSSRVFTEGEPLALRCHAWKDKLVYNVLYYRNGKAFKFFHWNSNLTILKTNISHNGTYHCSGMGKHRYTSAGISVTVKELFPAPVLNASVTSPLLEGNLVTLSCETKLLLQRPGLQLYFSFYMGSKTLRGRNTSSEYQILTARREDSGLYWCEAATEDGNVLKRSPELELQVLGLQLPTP
biotinylated canine FcRn, sequence (A0A8I3PFR8 entry or part of it): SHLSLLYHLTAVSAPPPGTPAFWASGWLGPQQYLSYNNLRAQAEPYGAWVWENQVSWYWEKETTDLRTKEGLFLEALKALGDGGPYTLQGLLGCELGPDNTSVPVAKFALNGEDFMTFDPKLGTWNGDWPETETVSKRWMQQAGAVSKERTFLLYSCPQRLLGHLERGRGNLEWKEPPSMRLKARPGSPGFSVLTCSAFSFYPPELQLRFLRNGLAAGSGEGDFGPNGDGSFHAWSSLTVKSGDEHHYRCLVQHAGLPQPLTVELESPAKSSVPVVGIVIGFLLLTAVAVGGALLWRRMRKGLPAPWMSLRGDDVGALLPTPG

B3: insulin-Fc fusion protein of SEQ ID NO: 96 (Fc fusion)
chain: FVNQHLCGSHLVEALELVCGERGFHYGGGGGGSGGGGGIVEQCCTSTCSLDQLENYCGGGGGQGGGGQGGGGQGGGGGRCTDTPPCPVPEPLGGPSVLIFPPKPKDILRITRTPEVTCVVLDLGREDPEVQISWFVDGKEVHTAKTQSREQQFNGTYRVVSVLPIEHQDWLTGKEFKCRVNHIDLPSPIERTISKARGRAHKPSVYVLPPSPKELSSSDTVSITCLIKDFYPPDIDVEWQSNGQQEPERKHRMTPPQLDEDGSYFLYSKLSVDKSRWQQGDPFTCAVMHETLQNHYTDLSLSHSPG
notes: purified on Protein A or Protein G
OD450 nm at a Fc(gamma)RI concentration of 3000 (ng/mL) [1]: 0.253 OD450 | Ratio to SEQ ID NO: 52 [1]: 0.53 ratio

B4: insulin-Fc fusion protein of SEQ ID NO: 36 (Fc fusion)
chain: FVNQHLCGSHLVEALALVCGERGFHYGGGGGGSGGGGGIVEQCCTSTCSLDQLENYCGGGGGQGGGGQGGGGQGGGGGDCPKCPAPEMLGGPSVFIFPPKPKDTLLIARTPEVTCVVVDLDPEDPEVQISWFVDGKQMQTAKTQPREEQFSGTYRVVSVLPIGHQDWLKGKQFTCKVNNKALPSPIERTISKARGQAHQPSVYVLPPSREELSKNTVSLTCLIKDFFPPDIDVEWQSNGQQEPESKYRTTPPQLDEDGSYFLYSKLSVDKSRWQRGDTFICAVMHEALHNHYTQESLSHSPG
notes: homodimer; also called cNg-S and B16A
OD450 nm at a Fc(gamma)RI concentration of 3000 (ng/mL) [1]: 0.177 OD450 | Ratio to SEQ ID NO: 52 [1]: 0.32 ratio

B5: insulin-Fc fusion protein of SEQ ID NO: 104 (Fc fusion)
chain: B4 chain with A16E
notes: 71% homodimer; also called cNg-NB151-S
OD450 nm at a Fc(gamma)RI concentration of 3000 (ng/mL) [1]: 0.175 OD450 | Ratio to SEQ ID NO: 52 [1]: 0.32 ratio

B9: insulin-Fc fusion protein of SEQ ID NO: 56 (Fc fusion)
chain: FVNQHLCGSDLVEALALVCGERGFFYTDPTGGGPRRGIVEQCCHSICSLYQLENYCNGGGGAGGGGCISPCPVPESLGGPSVFIFPPKPKDILRITRTPEITCVVLDLGREDPEVQISWFVDGKEVHTAKTQPREQQFNSTYRVVSVLPIEHQDWLTGKEFKCRVNHIGLPSPIERTISKARGQAHQPSVYVLPPSPKELSSSDTVTLTCLIKDFFPPEIDVEWQSNGQPEPESKYHTTAPQLDEDGSYFLYSKLSVDKSRWQQGDTFTCAVMHEALQNHYTDLSLSHSPG
notes: only 12% homodimer (aggregated)
IC50 (human insulin receptor): > 5000 nM

B10: insulin-Fc fusion protein of SEQ ID NO: 52 (Fc fusion)
chain: FVNQHLCGSDLVEALALVCGERGFFYTDPTGGGPRRGIVEQCCHSICSLYQLENYCNGGGGAGGGGDCPKCPAPEMLGGPSVFIFPPKPKDTLLIARTPEVTCVVVDLDPEDPEVQISWFVDGKQMQTAKTQPREEQFNGTYRVVSVLPIGHQDWLKGKQFTCKVNNKALPSPIERTISKARGQAHQPSVYVLPPSREELSKNTVSLTCLIKDFFPPDIDVEWQSNGQQEPESKYRTTPPQLDEDGSYFLYSKLSVDKSRWQRGDTFICAVMHEALHNHYTQESLSHSPG
notes: Homodimer; HEK293, Protein A
OD450 nm Minus Assay Background [2]: 0.323 OD450 | Ratio to SEQ ID NO: 52 [2]: 1 ratio | IC50 (human insulin receptor): 28 nM | OD450 nm Minus Assay Background [1]: 0.371 OD450 | OD450 nm at a Fc(gamma)RI concentration of 3000 (ng/mL) [1]: 0.428 OD450 | Ratio to SEQ ID NO: 52 [1]: 1 ratio

B11: insulin-Fc fusion protein of SEQ ID NO: 64 (Fc fusion)
chain: B10 chain with N139K
notes: homodimer; also called cNg-K; cNg-NB139-K
Ratio to SEQ ID NO: 52 [2]: 0.2 ratio

Now from value to binder:

IC50 (human insulin receptor): > 5000 nM
B1: insulin-Fc fusion protein of SEQ ID NO: 118 (Fc fusion)
chain: FVNQHLCGSHLVEALALVCGERGFFYTDPAGGGPRRGIVEQCCASVCSLYQLEHYCGGGGAGGGGDCPKCPPPEMLGGPSIFIFPPKPKDTLSISRTPEVTCLVVALGPDDSDVQITWFVDNTQVYTAKTSPREEQFSSTYRVVSVLPILHQDWLKGKEFKCKVNSKSLPSPIERTISKDKGQPHEPQVYVLPPAQEELSRNKVSVTCLIEGFYPSDIAVEWEITGQPEPENNYRTTPPQLDSDGTYFLYSRLSVDRSRWQRGNTYTCSVSHEALHSHHTQKSLTQSPG
notes: homodimer

IC50 (human insulin receptor): 707 nM
B2: insulin-Fc fusion protein of SEQ ID NO: 116 (Fc fusion)
chain: FVNQHLCGSHLVEALALVCGERGFFYTDPAGGGPRRGIVEQCCASVCSLYQLEHYCGGGGAGGGGGEGPKCPVPEIPGAPSVFIFPPKPKDTLSISRTPEVTCLVVDLGPDDSNVQITWFVDNTEMHTAKTRPREEQFSSTYRVVSVLPILHQDWLKGKEFKCKVNSKSLPSAMERTISKAKGQPHEPQVYVLPPTQEELSENKVSVTCLIKGFHPPDIAVEWEITGQPEPENNYQTTPPQLDSDGTYFLYSRLSVDRSHWQRGNTYTCSVSHEALHSHHTQKSLTQSPG
notes: homodimer

OD450 nm at a Fc(gamma)RI concentration of 3000 (ng/mL) [1]: 0.166 OD450 | Ratio to SEQ ID NO: 52 [1]: 0.29 ratio
B6: insulin-Fc fusion protein of SEQ ID NO: 102 (Fc fusion)
chain: B4 chain with A16E, D119A
notes: 73% homodimer; also called cNg-NB151-S, NB119-A

EC50 (biotinylated canine FcRn): 6.92 µg/mL
B7: insulin-Fc fusion protein of SEQ ID NO: 124 (Fc fusion)
chain: FVNQHLCGSHLVEALELVCGERGFHYGGGGGGSGGGGGIVEQCCTSTCSLDQLENYCGGGGGQGGGGQGGGGQGGGGGDCPKCPPPEMLGGPSIFIFPPKPKDTLSISRTPEVTCLVVDLGPDDSDVQITWFVDNTQVYTAKTSPREEQFSSTYRVVSVLPILHQDWLKGKEFKCKVNSKSLPSPIERTISKDKGQPHEPQVYVLPPAQEELSRNKVSVTCLIEGFYPSDIAVEWEITGQPEPENNYRTTPPQLDSDGTYFLYSRLSVDRSRWQRGNTYTCSVSHEALHSHHTQKSLTQSPG
notes: homodimer

IC50 (human insulin receptor): 3480 nM
B8: insulin-Fc fusion protein of SEQ ID NO: 114 (Fc fusion)
chain: FVNQHLCGSHLVEALALVCGERGFFYTDPAGGGPRRGIVEQCCASVCSLYQLEHYCGGGGAGGGGGEGPKCPVPEIPGAPSVFIFPPKPKDTLSISRTPEVTCLVVDLGPDDSNVQITWFVDNTEMHTAKTRPREEQFNSTYRVVSVLPILHQDWLKGKEFKCKVNSKSLPSAMERTISKAKGQPHEPQVYVLPPTQEELSENKVSVTCLIKGFHPPDIAVEWEITGQPEPENNYQTTPPQLDSDGTYFLYSRLSVDRSHWQRGNTYTCSVSHEALHSHHTQKSLTQSP
notes: homodimer
